Data on 4 molecules can be found in PMC9482650, “Quantitative fragmentomics allow affinity mapping of interactomes” (Nature Communications, 2022).

In general, pKd refers to the Kd on a negative log10 scale, so that one unit is a factor of ten.

Assay in all cases: holdup assay
Holding throughout (parameters): key: below the threshold = too weak to quantify, mostly under pKd 3.1 to 4
Details in all cases: plain residues with an end cap or a label only (N-terminal biotin on a linker: ado-ado)

Assay [1] concerns the target AHNAK1, Q09666.
In assay [2] the target is T1, DFNB31_3, Q9P202.
T1 sequence (Q9P202 811-907, limits assumed, looked up): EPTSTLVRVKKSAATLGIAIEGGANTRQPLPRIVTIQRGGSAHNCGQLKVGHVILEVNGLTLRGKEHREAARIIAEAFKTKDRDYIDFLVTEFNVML

Assay [3] concerns the target FRMPD2_2, Q68DX3.
Assay [4] has as its target FRMPD3, Q5JV73.
The target of assay [5] is GORASP2, Q9H8Y8.
For assay [6], the target named is GRID2IP_1, A4D2P6.
Sequence of GRID2IP_1, A4D2P6 (A4D2P6 1-87): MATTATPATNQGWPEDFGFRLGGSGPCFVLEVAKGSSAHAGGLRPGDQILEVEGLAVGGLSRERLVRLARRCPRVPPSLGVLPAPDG
The target of assay [7] is T2, GRIP1_4, Q9Y3R0.
T2 sequence (Q9Y3R0 467-571, limits assumed, looked up): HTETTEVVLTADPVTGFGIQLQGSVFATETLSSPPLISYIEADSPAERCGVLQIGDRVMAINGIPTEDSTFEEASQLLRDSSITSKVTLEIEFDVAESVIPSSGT

Assay [8] deals with T3, GRIP1_7, Q9Y3R0.
T3 sequence (Q9Y3R0 999-1096, limits assumed, looked up): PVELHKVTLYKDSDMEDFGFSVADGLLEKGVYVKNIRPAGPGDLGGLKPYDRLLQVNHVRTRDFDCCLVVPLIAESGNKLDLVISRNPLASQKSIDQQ

The target in assay [9] is Inadl_5, Q8NI35.
Sequence of Inadl_5, Q8NI35 (Q8NI35 673-780): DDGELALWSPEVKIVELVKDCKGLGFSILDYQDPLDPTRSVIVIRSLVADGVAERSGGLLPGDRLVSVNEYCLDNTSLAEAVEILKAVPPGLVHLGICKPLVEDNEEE
Assay [10] has as its target T4, LIN7A, O14910.
T4 sequence (O14910 103-200, limits assumed, looked up): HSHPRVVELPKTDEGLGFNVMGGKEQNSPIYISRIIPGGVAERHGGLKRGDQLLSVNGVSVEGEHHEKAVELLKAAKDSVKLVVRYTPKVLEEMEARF

Assay [11] has as its target T5, LIN7C, Q9NUP9.
T5 sequence (Q9NUP9 88-185, limits assumed, looked up): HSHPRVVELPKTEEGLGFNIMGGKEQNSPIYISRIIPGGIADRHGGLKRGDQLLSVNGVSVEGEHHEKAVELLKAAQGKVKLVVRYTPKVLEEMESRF

Assay [12] has as its target LNX1_3, Q8TBB1.
The target in assay [13] is MAGI2_5, Q86UL8.
Sequence of MAGI2_5, Q86UL8 (Q86UL8 915-1017): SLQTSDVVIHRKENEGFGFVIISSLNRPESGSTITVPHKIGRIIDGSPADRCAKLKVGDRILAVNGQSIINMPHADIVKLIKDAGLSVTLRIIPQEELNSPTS
Assay [14] deals with MAST2, Q6P0Q8.
Sequence of MAST2, Q6P0Q8 (Q6P0Q8 1099-1202): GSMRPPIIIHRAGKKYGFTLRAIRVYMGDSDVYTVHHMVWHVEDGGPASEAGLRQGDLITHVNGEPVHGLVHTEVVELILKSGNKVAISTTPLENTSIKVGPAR
The target in assay [15] is T6, MPDZ_5, O75970.
T6 sequence (O75970 695-796, limits assumed, looked up): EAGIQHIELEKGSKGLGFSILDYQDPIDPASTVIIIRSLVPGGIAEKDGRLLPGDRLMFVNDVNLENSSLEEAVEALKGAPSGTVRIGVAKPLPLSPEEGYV

The target of assay [16] is T7, NHERF3_3, Q5T2W1.
T7 sequence (Q5T2W1 238-333, limits assumed, looked up): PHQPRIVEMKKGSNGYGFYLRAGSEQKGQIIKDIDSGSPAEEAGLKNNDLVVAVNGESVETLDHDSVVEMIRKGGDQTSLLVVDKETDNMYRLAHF

For assay [17], the target named is T8, PDZD2_2, O15018.
T8 sequence (O15018 329-429, limits assumed, looked up): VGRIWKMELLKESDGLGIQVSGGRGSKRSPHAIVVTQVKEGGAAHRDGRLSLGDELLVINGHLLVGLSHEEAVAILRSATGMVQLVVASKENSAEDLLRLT

For assay [18], the target named is PICK1, Q9NRD5.
Sequence of PICK1, Q9NRD5 (Q9NRD5 17-115): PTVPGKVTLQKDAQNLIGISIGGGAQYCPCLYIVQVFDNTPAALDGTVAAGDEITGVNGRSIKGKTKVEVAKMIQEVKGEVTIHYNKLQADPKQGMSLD
For assay [19], the target named is T9, PTPN13_1, Q12923.
T9 sequence (Q12923 1088-1188, limits assumed, looked up): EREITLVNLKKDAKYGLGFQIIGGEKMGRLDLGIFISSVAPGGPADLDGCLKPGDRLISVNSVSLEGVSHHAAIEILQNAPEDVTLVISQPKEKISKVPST

The target in assay [20] is T10, RAPGEF6, Q8TEU7.
T10 sequence (Q8TEU7 525-625, limits assumed, looked up): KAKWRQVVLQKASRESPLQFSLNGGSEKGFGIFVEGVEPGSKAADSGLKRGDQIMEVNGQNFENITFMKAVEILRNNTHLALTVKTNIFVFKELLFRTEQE

Assay [21] concerns the target T11, SNTB1, Q13884.
T11 sequence (Q13884 107-205, limits assumed, looked up): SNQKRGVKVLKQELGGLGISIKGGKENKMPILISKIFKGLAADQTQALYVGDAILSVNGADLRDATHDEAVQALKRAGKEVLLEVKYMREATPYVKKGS

The target in assay [22] is T12, SNTG1, Q9NSN8.
T12 sequence (Q9NSN8 52-150, limits assumed, looked up): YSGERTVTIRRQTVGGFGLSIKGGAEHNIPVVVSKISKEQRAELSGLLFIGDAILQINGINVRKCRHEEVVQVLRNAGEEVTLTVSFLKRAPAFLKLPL

For assay [23], the target named is T13, SYNJ2BP, P57105.
T13 sequence (P57105 8-110, limits assumed, looked up): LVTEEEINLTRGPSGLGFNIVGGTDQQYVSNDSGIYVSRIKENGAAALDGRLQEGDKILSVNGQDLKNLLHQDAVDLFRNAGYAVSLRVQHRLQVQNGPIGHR

Assay [24] addresses TJP1_3, Q07157.

Sequence of AHNAK1, Q09666 (Q09666 4-100): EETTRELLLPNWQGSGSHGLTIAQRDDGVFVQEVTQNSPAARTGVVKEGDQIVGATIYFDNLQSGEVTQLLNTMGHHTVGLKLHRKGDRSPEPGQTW
Sequence of FRMPD3, Q5JV73 (Q5JV73 12-100): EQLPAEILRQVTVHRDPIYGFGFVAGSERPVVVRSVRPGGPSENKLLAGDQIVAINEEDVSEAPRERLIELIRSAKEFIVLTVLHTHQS
Sequence of TJP1_3, Q07157 (Q07157 416-512): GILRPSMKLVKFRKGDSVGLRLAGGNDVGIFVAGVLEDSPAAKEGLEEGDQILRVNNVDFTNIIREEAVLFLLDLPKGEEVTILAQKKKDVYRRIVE
Sequence of FRMPD2_2, Q68DX3 (Q68DX3 944-1038): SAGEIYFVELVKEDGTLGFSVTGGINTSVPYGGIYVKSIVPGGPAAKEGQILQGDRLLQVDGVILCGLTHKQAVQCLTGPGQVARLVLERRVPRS
Sequence of LNX1_3, Q8TBB1 (Q8TBB1 500-596): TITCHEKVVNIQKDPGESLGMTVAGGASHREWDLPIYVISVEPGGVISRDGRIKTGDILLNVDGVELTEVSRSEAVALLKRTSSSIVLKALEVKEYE

On to LEPAVRSSEL [SH2D3C, Q8N5H7], for which the pKd result in assay [1], in assay [2], in assay [3], in assay [4], in [5] and in assay [6] was “below the threshold” throughout. For the same molecule, the negative-log Kd (pKd) entry in assay [7], in assay [8], in assay [9], in assay [10], in assay [11] and in [12] was “below the threshold” each time. Moreover, the pKd is 4.28 in assay [13]; 5.51 in [14]; “below the threshold” in [15]; “below the threshold” in assay [16]; 3.97 in assay [17]; “below the threshold” in assay [18]. Besides, the pKd entry in assay [19] was “below the threshold”; in assay [20], “below the threshold”; in [21], 4.11; in assay [22] it was “below the threshold”; in assay [23] it was 4.44; in [24] it was “below the threshold”.
Consider RELVMRVTTV [MARCHF4, Q9P2E8], for which the pKd result was “below the threshold” in assay [1]; 4.33 in assay [2]; 4.06 in assay [3]; “below the threshold” in [4]; 5.54 in assay [5]; “below the threshold” in [6]. Further, the pKd result was “below the threshold” in assay [7]; “below the threshold” in [8]; “below the threshold” in assay [9]; 3.7 in assay [10]; 4.3 in assay [11]; “below the threshold” in assay [12]. Also, the pKd in assay [13] is 4.05; in assay [14] it was 5.29; in assay [15] it was “below the threshold”; in assay [16], “below the threshold”; in assay [17] it was 4.46; in assay [18] it was “below the threshold”. For the same molecule, the pKd result in assay [19] was “below the threshold”; in assay [20], “below the threshold”; in assay [21] it was 5.11; in assay [22], 4.95; in assay [23], 4.82; in [24], “below the threshold”.
For DQPLEKSTKL [AKAP10, O43572], the pKd result in [1] is “below the threshold”; in assay [2] it was 3.68; in assay [3] it was “below the threshold”; in assay [4] it was “below the threshold”; in assay [5] it was “below the threshold”; in assay [6], “below the threshold”. Moreover, the pKd result in assay [7], in [8], in assay [9], in assay [10], in assay [11] and in assay [12] was “below the threshold” each time. Moreover, the pKd in assay [13] was 4.02; in [14] it was 5.41; in [15] it was “below the threshold”; in assay [16], 4.79; in assay [17], 4.23; in assay [18], “below the threshold”. In addition, the pKd result was “below the threshold” in [19]; “below the threshold” in [20]; 3.99 in [21]; “below the threshold” in [22]; “below the threshold” in assay [23]; “below the threshold” in [24].
With QFTLRHWLKV [SLC6A3, Q01959], the pKd entry was “below the threshold” in [1]; “below the threshold” in assay [2]; “below the threshold” in [3]; “below the threshold” in assay [4]; 4.56 in assay [5]; “below the threshold” in assay [6]. Besides, the pKd result was “below the threshold” in assay [7]; “below the threshold” in assay [8]; 3.62 in [9]; “below the threshold” in [10]; “below the threshold” in assay [11]; 3.83 in [12]. Further, the negative-log Kd (pKd) entry was “below the threshold” in assay [13]; 4.82 in assay [14]; “below the threshold” in assay [15]; “below the threshold” in [16]; “below the threshold” in [17]; 3.69 in [18]. Besides, the pKd entry in [19], in assay [20], in [21], in assay [22], in assay [23] and in [24] was “below the threshold” throughout.
